# Assay results from patent US20040103447A1, “Schizophrenia-like mental disease model animal, method of constructing the same and use thereof” (priority 2001, published 2004).
# B1: IL-1α: human recombinant interleukin 1α, a cytokine, dissolved in physiological saline and administered to neonatal rats to induce the model (protein, UniProt P01583 113-271, looked up)
# Interleukin-1 alpha: SAPFSFLSNVKYNFMRIIKYEFILNDALNQSIIRANDQYLTAAALHNLDEAVKFDMGAYKSSKDDAKITVILRISKTQLYVTAQDEDQPVLLKEMPEIPKTITGSETNLLFFWETHGTKNYFTSVAHPNLFIATKQDYWVCLAGGPPSITDFQILENQA
# Tests used:
# SD rats [1] = assay: Prepulse inhibition (PPI) in startle response after neonatal subcutaneous administration; assay type: in vivo, rat; settings: 75 db prepulse, 120 db pulse after 100 ms, 1.0 mg/kg s.c. 10 times from 2 days after birth, compared to cytochrome-C group
# Source text: The prepulse inhibition in startle response is a test for perception-response ability using a startle response, which can be commonly evaluated in human and animals, as an index. This test is characterized in that abnormalities in attention and ability to process information in brain, which are considered to be the main disease state of schizophrenia, can be scientifically and objectively evaluated. The test itself is a measurement of decrease in a fright startle response to a big sound, which is attributable to the previous application of a weak sound stimulus (prepulse) of the level incapable of causing a fright startle response, 30-150 mSec before causing a fright startle response by making a noise of about 120 db. The decrease produced by the prepulse is called a prepulse inhibition, which is known to indicate abnormal decrease in schizophrenia patients and schizophrenia animal models (Braff D. L., Geyer M. A., Arch. Gen. Psychiatry, 47, 181-188, 1990).
# As the animal, SD rats (Japan SLC) were used from 2 days after birth. As a reagent, human recombinant interleukin 1α and cytochrome-C (Sigma) were each dissolved in physiological saline at 40 μg/mL and used. […] From 21 days after birth, startle response intensity and prepulse inhibition were measured with an apparatus of measuring startle response of small animal (San Diego Instruments). […]
# SD rats [2] = assay: Startle response intensity to 120 db sound after neonatal subcutaneous administration; assay type: in vivo, rat; settings: 1.0 mg/kg s.c. 10 times from 2 days after birth, compared to cytochrome-C administration group
# Experimental: As the animal, SD rats (Japan SLC) were used from 2 days after birth. As a reagent, human recombinant interleukin 1α and cytochrome-C (Sigma) were each dissolved in physiological saline at 40 μg/mL and used. The reagents were subcutaneously administered 10 times in total (up to 11 days after birth) into the neck at 25 μL (each 1.0 mg/kg) per 1 g of rat body weight […] from 2 days after birth. From 21 days after birth, startle response intensity and prepulse inhibition were measured with an apparatus of measuring startle response of small animal (San Diego Instruments). That is, as a sensory stimulus to induce a startle response, a sound stimulation was used, and as a prepulse stimulation, a sound pressure stimulus of 75 db was given, which was 5 db higher than the environmental noise (background noise) level. After 100 milli-seconds, a pulse stimulus of a sound pressure of 120 db was given. The ratio of decrease in the startle response when prepulse was combined to the startle response with 120 db alone was considered as the prepulse inhibition (PPI).
molecule,measurement,setting,value
B1,prepulse inhibition,"SD rats [1]; 22 days after birth, FIG. 2B",such abnormality was not found
same,prepulse inhibition,"SD rats [1]; 60 days after birth, p<0.05, FIG. 2A",significant decrease
same,intensity of startle response to the sound pressure of 120 db,"SD rats [2]; 22 days after birth, FIG. 1B",such abnormality was not found
same,intensity of startle response to the sound pressure of 120 db,"SD rats [2]; 60 days after birth, FIG. 1A",significant increase
